Data: patent publication CN111378038A (UNIV FUDAN, dated 2020)

B1: P2-G12 IgG1 (antibody, V domains shown)
VH: EVQLVQSGGGLVQPGGSLRLSCAASGFTFSSYSMNWVRQAPGKGLEWVSAISGSGGSTYYADSVKGRFTISRDNSKNTLYLQMNSLRAEDTAVYYCARDPYGSGSYYRGDAFDIWGQGTMVTVSS
VL: ELTQPPSVSVAPGKTARITCGGNNIGSKSVHWYQQKPGQAPVLAIYYDSDRPSGIPERFSGSNSGNTATLTISRVEVGDEADYYCQVWDSVSDVVFGGGTKLTVL
notes: also called 单克隆抗体P2-G12
B2: P2-G12 Fab (Fab, V domains shown)
VH: B1 VH
VL: B1 VL
notes: Fully human Fab from a phage display library, expressed in E. coli HB2151 and purified on Ni-NTA; P2-G12 is the only antibody described; also called PD-1抗体 (Fab形式)

Columns and labels:
PD-1(ECD)-hFc融合蛋白 [1] = molecular target: T1, PD-1(ECD)-hFc融合蛋白 (human, UniProt Q15116 25-170); assay: ELISA, PD-1(ECD)-hFc coated, serially diluted antibody, HRP-anti-Fab detection; reference: P2-G12 Fab
T1 construct: extracellular domain; It was biotin-labelled for the panning and coated on the plate in the ELISA; also called PD-1(ECD)-hFc蛋白; PD-1蛋白; not shown: hFc (human Fc)
T1 sequence (Q15116 25-170): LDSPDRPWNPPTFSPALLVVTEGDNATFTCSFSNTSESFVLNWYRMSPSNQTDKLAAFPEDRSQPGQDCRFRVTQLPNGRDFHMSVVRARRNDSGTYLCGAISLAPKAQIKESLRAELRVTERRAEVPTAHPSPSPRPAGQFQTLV

[2] = molecular target: T2, 人全长PD-1蛋白 (过表达于HEK293T细胞) (human, UniProt Q15116 25-288); assay: flow cytometry on HEK293T cells overexpressing human full-length PD-1, anti-human IgG1-FITC detection
T2 construct: whole, on cells; also called 过表达PD-1的HEK293T细胞
T2 sequence (Q15116 25-288): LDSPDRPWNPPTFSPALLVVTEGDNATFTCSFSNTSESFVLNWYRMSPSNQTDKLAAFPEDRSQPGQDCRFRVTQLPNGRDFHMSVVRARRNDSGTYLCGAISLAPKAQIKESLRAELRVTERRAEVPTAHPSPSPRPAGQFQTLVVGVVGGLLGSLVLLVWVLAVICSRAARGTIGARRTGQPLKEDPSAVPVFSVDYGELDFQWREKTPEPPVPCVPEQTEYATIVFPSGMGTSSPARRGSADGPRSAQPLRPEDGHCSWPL

PD-1(ECD)-hFc融合蛋白 [3] = molecular target: T1, PD-1(ECD)-hFc融合蛋白; assay: ELISA, PD-1(ECD)-hFc coated, serially diluted antibody, HRP-anti-Fab detection

Binder | fold increase of binding ability against the Fab form (PD-1(ECD)-hFc融合蛋白 [1]) [fold] | binding result [2] | binding result (PD-1(ECD)-hFc融合蛋白 [3])
B1 | 100 | binds | –
B2 | – | – | binds
